Target: T1, Rox1 (Saccharomyces cerevisiae, UniProt P25042 1-368)
T1 sequence: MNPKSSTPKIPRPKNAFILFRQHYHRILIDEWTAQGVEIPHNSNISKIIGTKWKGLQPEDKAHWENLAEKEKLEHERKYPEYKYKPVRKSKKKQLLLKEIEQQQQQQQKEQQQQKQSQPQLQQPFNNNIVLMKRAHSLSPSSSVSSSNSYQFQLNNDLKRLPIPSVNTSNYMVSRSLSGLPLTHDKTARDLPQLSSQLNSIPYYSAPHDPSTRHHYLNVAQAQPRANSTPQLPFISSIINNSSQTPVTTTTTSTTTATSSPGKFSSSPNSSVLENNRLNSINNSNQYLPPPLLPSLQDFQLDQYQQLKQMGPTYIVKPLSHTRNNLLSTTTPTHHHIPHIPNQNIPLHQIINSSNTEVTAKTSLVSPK
Assay: EMSA

B1: HMG6bp (dsDNA)
DNA 1: TGATTGTCAATTTAGTTAATCATTGTTATTAATAAAGGAAAGATATAAAA
DNA 2: TTTTATATCTTTCCTTTATTAATAACAATGATTAACTAAATTGACAATCA
Question: Does B1 bind?
Answer: binds

Source: PMC6941230
